# Measurements: IntAct's records for PubMed 25710501
# B1: Granule-bound starch synthase 1, chloroplastic/amyloplastic (Arabidopsis thaliana (Mouse-ear cress)), Q9MAQ0 (parent)
# chain: MATVTASSNFVSRTSLFNNHGASSCSDVAQITLKGQSLTHCGLRSFNMVDNLQRRSQAKPVSAKSSKRSSKVKTAGKIVCEKGMSVIFIGAEVGPWSKTGGLGDVLGGLPPALAARGHRVMTICPRYDQYKDAWDTCVVVQIKVGDKVENVRFFHCYKRGVDRVFVDHPIFLAKVVGKTGSKIYGPITGVDYNDNQLRFSLLCQAALEAPQVLNLNSSKYFSGPYGEDVVFVANDWHTALLPCYLKSMYQSRGVYMNAKVVFCIHNIAYQGRFAFDDYSLLNLPISFKSSFDFMDGYEKPVKGRKINWMKAAILEAHRVLTVSPYYAQELISGVDRGVELHKYLRMKTVSGIINGMDVQEWNPSTDKYIDIKYDITTVTDAKPLIKEALQAAVGLPVDRDVPVIGFIGRLEEQKGSDILVEAISKFMGLNVQMVILGTGKKKMEAQILELEEKFPGKAVGVAKFNVPLAHMITAGADFIIVPSRFEPCGLIQLHAMRYGTVPIVASTGGLVDTVKDGYTGFHIGRFNVKCEVVDPDDVIATAKAVTRAVAVYGTSAMQEMVKNCMDQDFSWKGPARLWEKVLLSLNVAGSEAGTEGEEIAPLAKENVATP
# partner: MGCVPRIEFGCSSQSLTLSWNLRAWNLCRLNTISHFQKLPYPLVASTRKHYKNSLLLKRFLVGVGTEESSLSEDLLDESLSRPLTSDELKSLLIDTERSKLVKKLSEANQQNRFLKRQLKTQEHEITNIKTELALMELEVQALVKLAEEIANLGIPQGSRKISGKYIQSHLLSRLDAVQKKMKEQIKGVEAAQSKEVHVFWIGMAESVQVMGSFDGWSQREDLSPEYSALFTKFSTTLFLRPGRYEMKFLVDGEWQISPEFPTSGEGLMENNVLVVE
# Variants of: B1
# Details: with ptst_arath PTST
row,Variant,effect of a mutation on the interaction
1,K441E,decreasing interaction strength
2,K441E;E452K,disrupting interaction strength
3,E449K,decreasing interaction strength
4,E452K,disrupting interaction strength

# Variants of: B1
# Details: with ptst_arath PTST
# Remark: another data set of the same source
row,Variant,effect of a mutation on the interaction
1,K441E;E452K,decreasing interaction strength
2,E452K,decreasing interaction strength
